Experimental data published in patent US11965039B2, “Compstatin analogues and their medical uses” (priority 2018, dated 2024).
Where two headings read alike, the source gives them in different places. Positions of bridges follow the written chain, without caps; N, C: chain ends. Non-standard residues stand in square brackets, D forms with d. Trp(1-Me) = Cn1cc(C[C@H](N)C(=O)O)c2ccccc21; NMeI = CC[C@H](C)[C@H](NC)C(=O)O; β3hI = CC[C@H](C)[C@H](N)CC(=O)O; Nle = CCCC[C@H](N)C(=O)O; Nva = CCC[C@H](N)C(=O)O; Sar = CNCC(=O)O

Legend:
[1] = biological target: T1, Human C3 (Complement tech cat #A113c) (human, UniProt P01024 23-1663); assay: SPR (Biacore T200), human C3 immobilised, peptide injected, 1:1 fit
T1 construct: Purified protein immobilised by amine coupling in the SPR assay; in the haemolysis assay it is the C3 of diluted human serum; Native C3 consists of a beta and an alpha chain cut from one precursor; also called C3 protein
Protocol: Surface plasmon resonance (SPR) was used to characterize peptides with respect to their binding affinity (Kd) for C3. Human C3 (Complement tech cat #A113c) was immobilised on individual flow cells of CM5 sensor chips (GE Healthcare) using standard amine coupling to a density of approximately 3000 resonance units (RU) in a buffer consisting of 10 mM phosphate pH 7.4, 150 mM NaCl, 0.05% Tween20.
For interaction experiments a multi-cycle experiment approach was used and performed using a BiacoreT200™ instrument (GE Healthcare) at 25° C. Peptides were injected in increasing concentration series (6-8 different concentrations) for 60-120 sat a flow rate of 30 µL/min in a buffer consisting of 10 mM Tris buffer at pH 7.4, with 150 mM NaCl and 0.05% Tween20. This was followed by a dissociation period for up to 10 min. The C3 surface was regenerated between runs by a 45 s injection of 3 M MgCl_2.

[2] = biological target: T1, Human C3 (Complement tech cat #A113c); assay: as above; remark: listed apart in the source
Summary of the method: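 Human C3 amine-coupled on CM5 chips to about 3000 RU. Multi-cycle runs on Biacore T200 at 25° C: peptides at 6-8 rising concentrations, 60-120 s at 30 µL/min in 10 mM Tris pH 7.4, 150 mM NaCl, 0.05% Tween20, dissociation up to 10 min; 3 M MgCl2 regeneration. Kd derived.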

[3] = biological target: T1, Human C3 (Complement tech cat #A113c); assay: cell-based or functional assay
[4] = biological target: T1, Human C3 (Complement tech cat #A113c); assay: cell-based or functional assay; remark: listed apart in the source
[5] = biological target: T1, Human C3 (Complement tech cat #A113c); assay: cell-based or functional assay; remark: listed apart in the source

T1 sequence (P01024 23-1663 limits assumed): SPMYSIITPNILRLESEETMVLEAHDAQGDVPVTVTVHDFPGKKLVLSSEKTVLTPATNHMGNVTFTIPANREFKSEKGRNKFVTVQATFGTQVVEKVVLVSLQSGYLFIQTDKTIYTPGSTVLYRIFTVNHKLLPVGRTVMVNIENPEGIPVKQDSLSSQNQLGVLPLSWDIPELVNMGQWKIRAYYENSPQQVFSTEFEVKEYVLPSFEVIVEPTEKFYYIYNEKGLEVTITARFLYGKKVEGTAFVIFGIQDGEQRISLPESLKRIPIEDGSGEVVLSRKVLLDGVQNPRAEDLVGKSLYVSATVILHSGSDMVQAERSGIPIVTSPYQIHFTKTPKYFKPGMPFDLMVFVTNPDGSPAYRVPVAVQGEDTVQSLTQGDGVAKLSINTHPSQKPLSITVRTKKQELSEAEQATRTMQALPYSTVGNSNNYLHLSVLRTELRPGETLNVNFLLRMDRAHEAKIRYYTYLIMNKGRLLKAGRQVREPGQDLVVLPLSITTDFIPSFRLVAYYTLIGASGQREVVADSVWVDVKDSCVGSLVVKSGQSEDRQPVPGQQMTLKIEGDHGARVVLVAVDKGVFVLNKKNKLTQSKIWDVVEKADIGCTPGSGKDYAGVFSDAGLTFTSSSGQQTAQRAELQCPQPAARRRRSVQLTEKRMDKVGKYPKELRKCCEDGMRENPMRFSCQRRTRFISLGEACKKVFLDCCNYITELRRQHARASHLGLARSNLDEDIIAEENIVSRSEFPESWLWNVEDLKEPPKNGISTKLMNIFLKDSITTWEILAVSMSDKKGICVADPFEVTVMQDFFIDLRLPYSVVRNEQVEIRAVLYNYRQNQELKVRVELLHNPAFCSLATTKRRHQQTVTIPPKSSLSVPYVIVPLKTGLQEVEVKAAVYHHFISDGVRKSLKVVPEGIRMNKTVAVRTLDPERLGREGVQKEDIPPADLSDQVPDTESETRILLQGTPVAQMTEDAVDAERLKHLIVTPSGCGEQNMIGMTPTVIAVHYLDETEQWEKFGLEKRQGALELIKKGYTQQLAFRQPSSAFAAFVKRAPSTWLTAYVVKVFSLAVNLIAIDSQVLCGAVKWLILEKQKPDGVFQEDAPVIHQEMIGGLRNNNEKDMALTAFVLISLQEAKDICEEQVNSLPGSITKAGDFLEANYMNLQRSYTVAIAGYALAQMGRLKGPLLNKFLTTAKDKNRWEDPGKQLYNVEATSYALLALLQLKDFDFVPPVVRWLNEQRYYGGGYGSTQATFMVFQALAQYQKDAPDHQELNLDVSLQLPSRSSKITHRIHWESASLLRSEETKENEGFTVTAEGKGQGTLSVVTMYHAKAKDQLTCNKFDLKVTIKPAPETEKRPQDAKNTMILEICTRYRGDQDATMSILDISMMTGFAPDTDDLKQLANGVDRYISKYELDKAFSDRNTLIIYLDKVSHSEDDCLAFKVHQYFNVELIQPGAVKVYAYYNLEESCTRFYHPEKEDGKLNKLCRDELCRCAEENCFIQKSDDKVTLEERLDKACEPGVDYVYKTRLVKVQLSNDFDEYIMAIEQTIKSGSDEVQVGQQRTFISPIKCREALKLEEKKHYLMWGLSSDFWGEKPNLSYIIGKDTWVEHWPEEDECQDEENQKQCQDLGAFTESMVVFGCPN

| Binder | Kd [1] [nM] | Kd [2] [nM] | inhibition of hemolysis IC50 [3] [nM] | IC50, CP hemolysis [4] [nM] | CP hemolysis IC50 [5] [nM] |
| --- | --- | --- | --- | --- | --- |
| H-[dY]ICI[Trp(1-Me)]QDW[Sar]AHRC[NMeI]-NH2 (disulfide 3-13; SMILES CC[C@H](C)[C@H](NC(=O)[C@H](N)Cc1ccc(O)cc1)C(=O)N[C@H]1CSSC[C@@H](C(=O)N(C)[C@H](C(N)=O)[C@@H](C)CC)NC(=O)[C@H](CCCNC(=N)N)NC(=O)[C@H](Cc2c[nH]cn2)NC(=O)[C@H](C)NC(=O)CN(C)C(=O)[C@H](Cc2c[nH]c3ccccc23)NC(=O)[C@H](CC(=O)O)NC(=O)[C@H](CCC(N)=O)NC(=O)[C@H](Cc2cn(C)c3ccccc23)NC(=O)[C@H]([C@@H](C)CC)NC1=O) [Compound 48] | 0.12 | 0.12 | < 100 |  |  |
| Ac-ICIWQDWGEHRCT-NH2 (disulfide 2-12; SMILES CC[C@H](C)[C@H](NC(C)=O)C(=O)N[C@H]1CSSC[C@@H](C(=O)N[C@H](C(N)=O)[C@@H](C)O)NC(=O)[C@H](CCCNC(=N)N)NC(=O)[C@H](Cc2c[nH]cn2)NC(=O)[C@H](CCC(=O)O)NC(=O)CNC(=O)[C@H](Cc2c[nH]c3ccccc23)NC(=O)[C@H](CC(=O)O)NC(=O)[C@H](CCC(N)=O)NC(=O)[C@H](Cc2c[nH]c3ccccc23)NC(=O)[C@H]([C@@H](C)CC)NC1=O) [Compound 2] | 16 | 16 | < 100 | < 100 | 94 |
| Ac-ICVWQDWGEHRCT-NH2 (disulfide 2-12; SMILES CC[C@H](C)[C@H](NC(C)=O)C(=O)N[C@H]1CSSC[C@@H](C(=O)N[C@H](C(N)=O)[C@@H](C)O)NC(=O)[C@H](CCCNC(=N)N)NC(=O)[C@H](Cc2c[nH]cn2)NC(=O)[C@H](CCC(=O)O)NC(=O)CNC(=O)[C@H](Cc2c[nH]c3ccccc23)NC(=O)[C@H](CC(=O)O)NC(=O)[C@H](CCC(N)=O)NC(=O)[C@H](Cc2c[nH]c3ccccc23)NC(=O)[C@H](C(C)C)NC1=O) [Compound A] | 130 |  |  | 350 | 350 |
| Ac-ICVWQDWGEHRCS-NH2 (disulfide 2-12; SMILES CC[C@H](C)[C@H](NC(C)=O)C(=O)N[C@H]1CSSC[C@@H](C(=O)N[C@@H](CO)C(N)=O)NC(=O)[C@H](CCCNC(=N)N)NC(=O)[C@H](Cc2c[nH]cn2)NC(=O)[C@H](CCC(=O)O)NC(=O)CNC(=O)[C@H](Cc2c[nH]c3ccccc23)NC(=O)[C@H](CC(=O)O)NC(=O)[C@H](CCC(N)=O)NC(=O)[C@H](Cc2c[nH]c3ccccc23)NC(=O)[C@H](C(C)C)NC1=O) [Compound G] | 160 |  |  |  | 180 |
| Ac-ICIWQDWGEHSCT-NH2 (disulfide 2-12; SMILES CC[C@H](C)[C@H](NC(C)=O)C(=O)N[C@H]1CSSC[C@@H](C(=O)N[C@H](C(N)=O)[C@@H](C)O)NC(=O)[C@H](CO)NC(=O)[C@H](Cc2c[nH]cn2)NC(=O)[C@H](CCC(=O)O)NC(=O)CNC(=O)[C@H](Cc2c[nH]c3ccccc23)NC(=O)[C@H](CC(=O)O)NC(=O)[C@H](CCC(N)=O)NC(=O)[C@H](Cc2c[nH]c3ccccc23)NC(=O)[C@H]([C@@H](C)CC)NC1=O) [Compound 20] |  | 37 | < 100 |  | 59 |
| Ac-ICIWQDWGEHRCS-NH2 (disulfide 2-12; SMILES CC[C@H](C)[C@H](NC(C)=O)C(=O)N[C@H]1CSSC[C@@H](C(=O)N[C@@H](CO)C(N)=O)NC(=O)[C@H](CCCNC(=N)N)NC(=O)[C@H](Cc2c[nH]cn2)NC(=O)[C@H](CCC(=O)O)NC(=O)CNC(=O)[C@H](Cc2c[nH]c3ccccc23)NC(=O)[C@H](CC(=O)O)NC(=O)[C@H](CCC(N)=O)NC(=O)[C@H](Cc2c[nH]c3ccccc23)NC(=O)[C@H]([C@@H](C)CC)NC1=O) [Compound 21] | 16 | 16 | < 100 |  | 77 |
| Ac-ICIWQDWGEHRCTGAES-NH2 (disulfide 2-12; SMILES CC[C@H](C)[C@H](NC(C)=O)C(=O)N[C@H]1CSSC[C@@H](C(=O)N[C@H](C(=O)NCC(=O)N[C@@H](C)C(=O)N[C@@H](CCC(=O)O)C(=O)N[C@@H](CO)C(N)=O)[C@@H](C)O)NC(=O)[C@H](CCCNC(=N)N)NC(=O)[C@H](Cc2c[nH]cn2)NC(=O)[C@H](CCC(=O)O)NC(=O)CNC(=O)[C@H](Cc2c[nH]c3ccccc23)NC(=O)[C@H](CC(=O)O)NC(=O)[C@H](CCC(N)=O)NC(=O)[C@H](Cc2c[nH]c3ccccc23)NC(=O)[C@H]([C@@H](C)CC)NC1=O) [Compound 15] | 14 | 14 | < 100 |  | 47 |
| Ac-ICVWQDWGEHRCTGAES-NH2 (disulfide 2-12; SMILES CC[C@H](C)[C@H](NC(C)=O)C(=O)N[C@H]1CSSC[C@@H](C(=O)N[C@H](C(=O)NCC(=O)N[C@@H](C)C(=O)N[C@@H](CCC(=O)O)C(=O)N[C@@H](CO)C(N)=O)[C@@H](C)O)NC(=O)[C@H](CCCNC(=N)N)NC(=O)[C@H](Cc2c[nH]cn2)NC(=O)[C@H](CCC(=O)O)NC(=O)CNC(=O)[C@H](Cc2c[nH]c3ccccc23)NC(=O)[C@H](CC(=O)O)NC(=O)[C@H](CCC(N)=O)NC(=O)[C@H](Cc2c[nH]c3ccccc23)NC(=O)[C@H](C(C)C)NC1=O) [Compound D] | 230 |  |  |  | 210 |
| Ac-EGSAICIWQDWGEHRC[Sar]E-NH2 (disulfide 6-16; SMILES CC[C@H](C)[C@H](NC(=O)[C@H](C)NC(=O)[C@H](CO)NC(=O)CNC(=O)[C@H](CCC(=O)O)NC(C)=O)C(=O)N[C@H]1CSSC[C@@H](C(=O)N(C)CC(=O)N[C@@H](CCC(=O)O)C(N)=O)NC(=O)[C@H](CCCNC(=N)N)NC(=O)[C@H](Cc2c[nH]cn2)NC(=O)[C@H](CCC(=O)O)NC(=O)CNC(=O)[C@H](Cc2c[nH]c3ccccc23)NC(=O)[C@H](CC(=O)O)NC(=O)[C@H](CCC(N)=O)NC(=O)[C@H](Cc2c[nH]c3ccccc23)NC(=O)[C@H]([C@@H](C)CC)NC1=O) [Compound 28] |  | 44 | < 100 |  | 88 |
| Ac-ICIWQDWGEHRCTEGE-NH2 (disulfide 2-12; SMILES CC[C@H](C)[C@H](NC(C)=O)C(=O)N[C@H]1CSSC[C@@H](C(=O)N[C@H](C(=O)N[C@@H](CCC(=O)O)C(=O)NCC(=O)N[C@@H](CCC(=O)O)C(N)=O)[C@@H](C)O)NC(=O)[C@H](CCCNC(=N)N)NC(=O)[C@H](Cc2c[nH]cn2)NC(=O)[C@H](CCC(=O)O)NC(=O)CNC(=O)[C@H](Cc2c[nH]c3ccccc23)NC(=O)[C@H](CC(=O)O)NC(=O)[C@H](CCC(N)=O)NC(=O)[C@H](Cc2c[nH]c3ccccc23)NC(=O)[C@H]([C@@H](C)CC)NC1=O, also called Comp No 24) [Compound 24] |  | 28 | < 100 |  | 90 |
| Ac-IC[β3hI]WQDWGEHRCT-NH2 (disulfide 2-12) [Ac-IC(1)XWQDWGEHRC(1)T-NH2 with Beta-Homo-Isoleucine at position 3] |  |  |  | > 10000 |  |
| Ac-IC[Nle]WQDWGEHRCT-NH2 (disulfide 2-12; SMILES CCCC[C@@H]1NC(=O)[C@@H](NC(=O)[C@@H](NC(C)=O)[C@@H](C)CC)CSSC[C@@H](C(=O)N[C@H](C(N)=O)[C@@H](C)O)NC(=O)[C@H](CCCNC(=N)N)NC(=O)[C@H](Cc2c[nH]cn2)NC(=O)[C@H](CCC(=O)O)NC(=O)CNC(=O)[C@H](Cc2c[nH]c3ccccc23)NC(=O)[C@H](CC(=O)O)NC(=O)[C@H](CCC(N)=O)NC(=O)[C@H](Cc2c[nH]c3ccccc23)NC1=O) [Ac-IC(1)XWQDWGEHRC(1)T-NH2 with Norleucine at position 3] |  |  |  | 480 |  |
| Ac-IC[Nva]WQDWGEHRCT-NH2 (disulfide 2-12; SMILES CCC[C@@H]1NC(=O)[C@@H](NC(=O)[C@@H](NC(C)=O)[C@@H](C)CC)CSSC[C@@H](C(=O)N[C@H](C(N)=O)[C@@H](C)O)NC(=O)[C@H](CCCNC(=N)N)NC(=O)[C@H](Cc2c[nH]cn2)NC(=O)[C@H](CCC(=O)O)NC(=O)CNC(=O)[C@H](Cc2c[nH]c3ccccc23)NC(=O)[C@H](CC(=O)O)NC(=O)[C@H](CCC(N)=O)NC(=O)[C@H](Cc2c[nH]c3ccccc23)NC1=O) [Ac-IC(1)XWQDWGEHRC(1)T-NH2 with Norvaline at position 3] |  |  |  | > 1000 |  |
